# Read-outs that look alike come from different tables or passages of the source.
# T1: cyanuric acid hydrolase from M. thermoacetica (Moorella thermoacetica, UniProt Q2RGM7)
# T1 construct: ORF Moth—2120 from M. thermoacetica ATCC 39073 was PCR amplified; His-tag (from pET28b+, cloned NdeI/HindIII) (N); made in house; host or cells: E. coli BRL21(DE3) pLysS, vector pET28b+::Moth_2120
# T1 sequence (Q2RGM7 1-367): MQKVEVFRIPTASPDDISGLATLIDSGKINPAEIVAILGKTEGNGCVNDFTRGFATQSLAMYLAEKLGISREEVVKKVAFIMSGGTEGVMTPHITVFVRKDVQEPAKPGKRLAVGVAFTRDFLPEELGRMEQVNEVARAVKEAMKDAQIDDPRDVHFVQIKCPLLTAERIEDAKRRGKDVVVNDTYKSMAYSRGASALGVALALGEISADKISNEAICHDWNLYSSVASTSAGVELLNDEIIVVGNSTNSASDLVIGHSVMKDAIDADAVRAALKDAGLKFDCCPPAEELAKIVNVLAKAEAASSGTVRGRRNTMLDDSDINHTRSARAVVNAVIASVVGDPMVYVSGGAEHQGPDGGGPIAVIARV
# T2: Moorella cyanuric acid hydrolase (Moorella thermoacetica, UniProt Q2RGM7)
# T2 construct: ORF Moth—2120 from M. thermoacetica ATCC 39073 was PCR amplified; His-tag (from pET28b+, cloned NdeI/HindIII) (N); made in house; host or cells: E. coli BRL21(DE3) pLysS, vector pET28b+::Moth_2120
# T2 sequence (Q2RGM7 1-367): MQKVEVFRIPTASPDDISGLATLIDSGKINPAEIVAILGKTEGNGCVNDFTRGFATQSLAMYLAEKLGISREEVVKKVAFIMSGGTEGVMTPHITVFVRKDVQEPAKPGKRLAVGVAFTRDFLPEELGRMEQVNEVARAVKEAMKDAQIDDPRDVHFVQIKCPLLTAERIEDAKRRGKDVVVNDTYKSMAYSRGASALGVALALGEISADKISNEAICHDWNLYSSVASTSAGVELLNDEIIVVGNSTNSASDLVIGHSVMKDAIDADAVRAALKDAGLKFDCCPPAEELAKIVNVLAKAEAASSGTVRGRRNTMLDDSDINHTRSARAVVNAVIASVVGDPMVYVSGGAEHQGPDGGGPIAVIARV
# T3: cyanuric acid hydrolase from M. thermoacetica ATCC 39073 (Moorella thermoacetica, UniProt Q2RGM7)
# T3 construct: ORF Moth—2120 from M. thermoacetica ATCC 39073 was PCR amplified; His-tag (from pET28b+, cloned NdeI/HindIII) (N); made in house; host or cells: E. coli BRL21(DE3) pLysS, vector pET28b+::Moth_2120
# T3 sequence (Q2RGM7 1-367): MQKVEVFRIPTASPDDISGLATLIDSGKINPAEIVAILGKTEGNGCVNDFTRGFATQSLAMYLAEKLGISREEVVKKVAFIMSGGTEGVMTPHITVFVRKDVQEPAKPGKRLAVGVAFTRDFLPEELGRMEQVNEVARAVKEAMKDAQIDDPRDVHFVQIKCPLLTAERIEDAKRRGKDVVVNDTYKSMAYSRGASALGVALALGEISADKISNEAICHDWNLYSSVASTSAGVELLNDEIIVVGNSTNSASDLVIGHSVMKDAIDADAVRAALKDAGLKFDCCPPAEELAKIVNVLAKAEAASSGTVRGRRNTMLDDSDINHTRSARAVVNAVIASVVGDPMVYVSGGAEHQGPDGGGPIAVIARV
# Key:
# [1] = biological target: T1, cyanuric acid hydrolase from M. thermoacetica; type: biochemical, Moorella thermoacetica ATCC 39073; conditions: for activity as % of native activity: at higher concentrations (1.0 and 2.0 mM); for effect of metal on native enzyme activity: 0.2 mM
# [2] = biological target: T2, Moorella cyanuric acid hydrolase; assay: Substrate specificity analysis; type: biochemical, Moorella thermoacetica ATCC 39073
# Method: (§1) Enzyme assay and kinetic constant determinations. Enzyme activity was monitored on a Beckman DU 640 spectrophotometer (Beckman Coulter, Fullerton, Calif.). Cyanuric acid and barbituric acid concentrations were measured at 214 nm (extinction coefficient=9200 cm^−1M^−1) and 256 nm, respectively. Reactions were carried out in 0.5 ml 25 mM Tris-HCl buffer, pH 8.0 with 100 μM cyanuric acid or barbituric acid at 30° C. Reactions were initiated by the addition of the enzyme. Kinetic parameters were determined by obtaining rates at cyanuric acid concentrations ranging from 10 to 110 μM. The data was plotted using Lineweaver-Burke plots.
# Substrate specificity analysis. Seventeen compounds structurally analogous to cyanuric acid were tested as substrates: 5-nitrobarbituric acid, 5-methylbarbituric acid, 2-methylamino-4,6dihydroxy-s-triazine, 1,3,5-trimethoxy-s-triazine, 2-(3-methoxy propylamino)-4,6-dihydroxy-s-triazine, triphenoxy-s-triazine, 2-secbutyl-4,6-dihydroxy-s-triazine, N-phenyl ammelide, 2-ethylamino-4,6-dihydroxy-s-triazine, triisopropoxy-s-triazine, trimethyl isocyanurate, 1,3-dimethyl isocyanurate, hexazinone, 4,6-dihydroxy-2-mecapto pyrimidine, 4,6-dihydroxy-5-nitro-pyrimidine, barbituric acid and methyl isocyanurate. The compounds (100 μM) were incubated with 50 μg of purified enzyme in 25 mM Tris-HCl buffer (pH 8.0) for 30 min. Changes in the UV spectra were recorded. In cases where changes in the spectra were detected, an appropriate wavelength with absorbance differences between the substrate and product was chosen for further kinetic study. For N-methylisocyanurate, absorbance was measured at 214 nm (extinction coefficient=9500 cm^−1M^−1).
# [3] = biological target: T1, cyanuric acid hydrolase from M. thermoacetica; assay: Metal chelator effects; type: biochemical, Moorella thermoacetica ATCC 39073; conditions: for effect of chelator on activity: 5 mM chelator, 24 h incubation, room temperature
# Method: Metal chelator effects. Purified protein was incubated at room temperature with 5 mM 1,10-phenanthroline, 8-hydroxyquinoline-5-sulfonic acid, or ethylenediaminetetraacetic acid (EDTA) for 24 hours. PD-10 desalting columns (GE Healthcare) were used, as per the manufacturer's instructions, to remove the chelator from the enzyme. Enzymatic activity was measured with cyanuric acid as substrate, as described above.
# [4] = Enzyme assay and kinetic constant determinations (cyanuric acid, 214 nm); type: biochemical
# Method: as §1
# [5] = Effect of pH and temperature on enzymatic activity; type: biochemical
# Method: Effect of pH and temperature on enzymatic activity. The optimum pH of the enzyme was determined at 30° C. with the following buffers: 25 mM […]; 25 mM Tris-HCl, pH 7-9; NaHCO3/Na2CO3, pH 9.5-10.5. The temperature optimum was determined by assaying the enzyme activity in 25 mM Tris-HCl, pH 8.0 at temperatures ranging from 25° C. to 70° C.
# [6] = Temperature stability of the enzyme (30 min incubation prior to assay); type: biochemical
# Method: FIG. 4. Stability of enzyme activity vs. temperature at pH 8.0 for purified cyanuric acid hydrolases from M. thermoacetica ATCC 39073 (●) compared with TrzD (▪) and AtzD (▴). Enzymes were maintained at the temperature indicated for 30 minutes prior to assay under standard conditions.
# (§2) Temperature stability of the enzyme. The thermal stability of the enzyme was determined by incubating the enzyme at various temperatures for […] prior to activity determinations. Studies of the stability during storage were performed at 4° C. or −80° C. with or without additives. The additives were 0.2 mM of dithiothreitol (DTT), 10% ethylene glycol, 25% glycerol and 25% polyethylene glycol (PEG) 4000. The activity was checked every two weeks, as described above.
# [7] = biological target: T3, cyanuric acid hydrolase from M. thermoacetica ATCC 39073; assay: Storage stability at 4° C. or −80° C. with or without additives; type: biochemical, Moorella thermoacetica ATCC 39073; conditions: for Activity, 0 week: pH 8.0, 0 week; for Activity, 2 week: pH 8.0, 2 week; for Activity, 4 week: pH 8.0, 4 week; for Activity, 6 week: pH 8.0, 6 week; for Activity, 8 week: pH 8.0, 8 week
# Method: as §2
# [8] = cyanuric acid, published values, cited from earlier work
molecule,measurement,setting,value
[Cl-].[Cl-].[Mg+2] [MgCl2],activity as % of native activity,[1],119%
same,Relative activity,[1]; metal salt 2.0 mM,119 ± 2
O=C1CC(=O)NC(=O)N1 [barbituric acid],detectable activity with compound as substrate,"[2]; 100 μM, even with 50 μg of protein in a single assay",did not show detectable activity
O=S(=O)(O)c1ccc(O)c2ncccc12 [8-hydroxyquinoline-5-sulfonic acid],effect of chelator on activity,[3],failed to alter activity
O=S(=O)([O-])[O-].[Mn+2] [MnSO4],Relative activity,[1]; metal salt 0.2 mM,96 ± 3
[Cl-].[Cl-].[Co+2] [CoCl2],Relative activity,[1],92 ± 5
"c1cnc2c(c1)ccc1cccnc12 [o-phenanthroline, 1,10-phenanthroline]",effect of chelator on activity,[3],failed to alter activity
[Cl][Ni][Cl] [NiCl2],effect of metal on native enzyme activity,[1],slight decreases in activity
same,Relative activity,[1]; metal salt 0.2 mM,79 ± 3
[Cl][Fe]([Cl])[Cl] [FeCl3],Relative activity,[1]; metal salt 0.2 mM,105 ± 4
[Ca+2].[Cl-].[Cl-] [CaCl2],activity as % of native activity,[1],121%
same,Relative activity,[1]; metal salt 1.0 mM,121 ± 7
"O=C(O)CN(CCN(CC(=O)O)CC(=O)O)CC(=O)O [EDTA, ethylenediaminetetraacetic acid]",effect of chelator on activity,[3],failed to alter activity
[Cl][Cu][Cl] [CuCl2],effect of metal on native enzyme activity,[1],slight decreases in activity
same,Relative activity,[1]; metal salt 0.2 mM,83 ± 3
O=S(=O)([O-])[O-].[Zn+2] [ZnSO4],effect of metal on native enzyme activity,[1],greatest inhibitory affect
same,Relative activity,[1]; metal salt 0.2 mM,51 ± 4
Cn1c(=O)[nH]c(=O)[nH]c1=O [methyl isocyanurate],rate relative to the preferred substrate cyanuric acid,[2],less than 1%
same,rate of hydrolysis as substrate,"[2]; 100 μM compound, 25 mM Tris-HCl pH 8.0",0.13 µmol/min/mg
"cyanuric acid hydrolase from M. thermoacetica ATCC 39073: recombinant His-tagged cyanuric acid hydrolase encoded by ORF Moth—2120 of Moorella thermoacetica ATCC 39073, expressed in E. coli (protein, listed as Moorella thermoacetica, His tag, recombinant His-tagged cyanuric acid hydrolase encoded by ORF Moth—2120 of Moorella thermoacetica ATCC 39073, expressed in E. coli) MQKVEVFRIPTASPDDISGLATLIDSGKINPAEIVAILGKTEGNGCVNDFTRGFATQSLAMYLAEKLGISREEVVKKVAFIMSGGTEGVMTPHITVFVRKDVQEPAKPGKRLAVGVAFTRDFLPEELGRMEQVNEVARAVKEAMKDAQIDDPRDVHFVQIKCPLLTAERIEDAKRRGKDVVVNDTYKSMAYSRGASALGVALALGEISADKISNEAICHDWNLYSSVASTSAGVELLNDEIIVVGNSTNSASDLVIGHSVMKDAIDADAVRAALKDAGLKFDCCPPAEELAKIVNVLAKAEAASSGTVRGRRNTMLDDSDINHTRSARAVVNAVIASVVGDPMVYVSGGAEHQGPDGGGPIAVIARV",specific activity with cyanuric acid,"[4]; 100 μM cyanuric acid, 25 mM Tris-HCl pH 8.0, 30° C.",15.7 µmol/min/mg
same,Km,"[4]; cyanuric acid 10 to 110 μM, Lineweaver-Burke, read-out: Km with cyanuric acid as substrate",110 µM
same,kcat,[4]; cyanuric acid as substrate,10.6 s⁻¹
same,Known substrates,[2],"Cyanuric acid, N-"
same,"Temp, optimum","[5]; 25 mM Tris-HCl pH 8.0, range 25-70° C.",70 °C
same,pH optimum,"[5]; 30° C., pH 5.5 to 10.5",8.0
same,maximum activity at 70° C.,"[5]; 70° C., pH 8.0",24 μmol per min per mg protein
same,initial activity remaining after 30 min at 50° C.,"[6]; 30 min, pH 8.0",stable
same,initial activity remaining after 30 min at 50° C.,"[6]; 30 min, pH 8.0, listed as Moorella enzyme",95%
same,initial activity remaining after 30 min at 70° C.,"[6]; 70° C., 30 min, pH 8.0",30%
same,Thermostability: temperature where activity above 50% after a 30 min incubation,"[6]; pH 8.0, 30 min incubation",20-65 °C
same,loss of activity after 8 weeks,[7]; both storage temperatures (4° C. and −80° C.),no loss of activity
same,specific activity after 8 weeks as % of initial specific activity,"[7]; stored at 4° C., 8 weeks",142%
same,"Activity, 0 week",[7]; stored at 4° C.,11.9 ± 0.23 μmol per min per mg protein
same,"Activity, 2 week",[7]; stored at 4° C.,12.5 ± 0.2 μmol per min per mg protein
same,"Activity, 4 week",[7]; stored at 4° C.,15.9 ± 0.7 μmol per min per mg protein
same,"Activity, 6 week",[7]; stored at 4° C.,16.6 ± 0.9 μmol per min per mg protein
same,"Activity, 8 week",[7]; stored at 4° C.,16.9 ± 1^ μmol per min per mg protein
same,"Activity, 0 week",[7]; stored at −80° C.,11.9 ± 0.2 μmol per min per mg protein
same,"Activity, 2 week",[7]; stored at −80° C.,14.9 ± 0.1 μmol per min per mg protein
same,"Activity, 4 week",[7]; stored at −80° C.,14.3 ± 0.3 μmol per min per mg protein
same,"Activity, 6 week",[7]; stored at −80° C.,12.3 ± 0.4 μmol per min per mg protein
same,"Activity, 8 week",[7]; stored at −80° C.,11.7 ± 1.1 μmol per min per mg protein
same,Metal affects on activity,[1],"Cu(II), Zn(I), Ni(II)"
same,Influence of chelators on activity,[3],"No affect EDTA, o-"
same,kcat (literature),[8],10.6 s⁻¹
same,Km,[8]; read-out: Km (literature),110 µM

# Reference: patent US8367389B2, “Methods, compositions and devices utilizing structurally stable cyanuric acid hydrolase” (Regents of the University of Minnesota, priority 2009, dated 2013)
